Laboratory results reported in patent US20170052184A1 (published 2017).
Ends that are not written are not given here.

T1: HCV Core1-169 recombinant antigen (hepatitis C virus (HCV-1), UniProt P26664 1-169)
T1 sequence: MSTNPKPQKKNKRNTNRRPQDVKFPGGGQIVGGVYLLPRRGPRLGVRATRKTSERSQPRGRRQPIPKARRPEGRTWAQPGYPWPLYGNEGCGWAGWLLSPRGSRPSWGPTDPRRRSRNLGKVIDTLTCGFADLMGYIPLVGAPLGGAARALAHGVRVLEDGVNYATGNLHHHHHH

T2: C113WT biotin labeled HCV core peptide (Hepatitis C virus, also: biotin label, position not given here)
T2 peptide: RGSRPSWGPTD

T3: C113T110N biotin labeled HCV core peptide (Hepatitis C virus, also: biotin label, position not given here)
T3 peptide: RGSRPSWGPND

B1: 208B-395-334 monoclonal antibody (antibody, V domains shown)
VH: QVQLQQSGAGLAKPGASVKMSCKASGYTFTANKMHWTKQRPGQGLEWIGYIDPSSGYTQYNHKIQDKATLTADTSSSTAYMQLSSLTFEDSAVYYCTNFAYWGQGTLVTVSA
VL: DIVLTQSPATLSVTPGDRVSLSCRASQRIYNYLHWYQQKSHESPRLLIKYASQSISGIPSRFSGSGSGTDFILTINSVETEDFGMYFCQQSNSWPLTFGAGTKLELRR
B2: 208B-612-226 monoclonal antibody (antibody, V domains shown)
VH: EVQLQQSGPELVKPGASVKMSCKASGYRFTSYVMHWVRQKPGQGLEWIGYIDPHNDDTKYSEKFRGKATLTSDKSSTTAYMELSSLTSEDSAVYYCVRYSYDRDYSPMDYWGQGTSVTVSS
VL: QIVLTQSPTLMSASPGEKVTMTCSASSTVTYIYWYQQKPGSSPRLWMYDTFNLVSGVPARFSGSRSGTSYFLTISSMEGEDAATYYCQQYSDSPYTFGGGTKLEIKR
B3: Neo4 monoclonal antibody (antibody, V domains shown)
VH: QIQLKESGPAVIKPSQSLSLTCIVSGFSITSSVYCWQWIRQPPGKGLEWMGRICYDGSVDYSPSITSRGTISRDTSLNKVFFQLSSVTNEDTAMYYCSRENHIDYYDTTYPSFDVWGAGTTVTVSS
VL: DIVLTQSPASLIVSLGQRATISCRASKSVNEYGYTYMHWYQQKPGLPPKLLIYLASNLDSGVPARFSGSGSGTDFTLNIHPVEEEDAATYYCQHSRELPYTFGGGTKLEIKR
notes: also called HCV Neo4

How the values were obtained:
[1] = biological target: T1, HCV Core1-169 recombinant antigen; experiment: sandwich EIA, 25 ng/ml core1-169; capture mAb C11-7
[2] = biological target: T1, HCV Core1-169 recombinant antigen; experiment: sandwich EIA, 25 ng/ml core1-169; capture mAb C11-9
[3] = biological target: T1, HCV Core1-169 recombinant antigen; experiment: sandwich EIA, 25 ng/ml core1-169; capture mAb 208A-110
[4] = biological target: T1, HCV Core1-169 recombinant antigen; experiment: sandwich EIA, 25 ng/ml core1-169; capture mAb 208A-293
[5] = biological target: T1, HCV Core1-169 recombinant antigen; experiment: sandwich EIA, 25 ng/ml core1-169; capture mAb 208A-557
[6] = biological target: T1, HCV Core1-169 recombinant antigen; experiment: sandwich EIA, 25 ng/ml core1-169; capture mAb 208A-692
[7] = biological target: T1, HCV Core1-169 recombinant antigen; experiment: sandwich EIA, 25 ng/ml core1-169; capture mAb 208B-741
[8] = biological target: T1, HCV Core1-169 recombinant antigen; experiment: sandwich EIA, 25 ng/ml core1-169; capture mAb 208B-1096
[9] = biological target: T1, HCV Core1-169 recombinant antigen; experiment: sandwich EIA, 25 ng/ml core1-169; capture NC capture mAb
[10] = biological target: T1, HCV Core1-169 recombinant antigen; experiment: sandwich EIA, 25 ng/ml core1-169; capture mAb 208A-207-271
[11] = biological target: T1, HCV Core1-169 recombinant antigen; experiment: sandwich EIA, 25 ng/ml core1-169; capture mAb 208B-395-334
[12] = biological target: T1, HCV Core1-169 recombinant antigen; experiment: sandwich EIA, 25 ng/ml core1-169; capture mAb 208B-612-226
[13] = biological target: T2, C113WT biotin labeled HCV core peptide; experiment: EIA, captured mAb + biotin peptide
[14] = biological target: T3, C113T110N biotin labeled HCV core …; experiment: EIA, captured mAb + biotin peptide

| Binder | OD492 nm [1] [OD492] | OD492 nm [2] [OD492] | OD492 nm [3] [OD492] | OD492 nm [4] [OD492] | OD492 nm [5] [OD492] | OD492 nm [6] [OD492] | OD492 nm [7] [OD492] | OD492 nm [8] [OD492] | OD492 nm [9] [OD492] | OD492 nm [10] [OD492] | OD492 nm [11] [OD492] | OD492 nm [12] [OD492] | binding result [13] | binding result [14] |
| --- | --- | --- | --- | --- | --- | --- | --- | --- | --- | --- | --- | --- | --- | --- |
| B1 | 0.89 | 0.32 | 0.21 | 0.26 | 0.21 | 0.15 | 0.21 | 0.23 | 0.2 | 0.2 | 0.23 | 0.26 | – | – |
| B2 | 1.52 | 0.64 | 0.26 | 0.28 | 0.23 | 0.18 | 0.23 | 0.7 | 0.21 | 0.24 | 0.83 | 0.23 | – | – |
| B3 | – | – | – | – | – | – | – | – | – | – | – | – | no binding | no binding |
